Consider 55 sequences from the supplement of paper PMC12636428.

The test system of the data set is Saccharomyces cerevisiae. The data set can be described thus: transcriptional activation domain activity (GFP:mCherry ratio, weighted mean of sorted bins, harmonized to initial dataset scale) (arbitrary fluorescence ratio units); higher = stronger transcriptional activation. To be noted: beta-estradiol 1 µM; induction time 4 h. In a few lines:
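Protein tiles carrying barcodes and fused to an estradiol-inducible synthetic transcription factor were placed at the URA3 locus of yeast diploids with a GFP reporter. Following 4 hours at 30 °C in SC with 1 uM beta-estradiol, cells were sorted into 8 GFP:mCherry bins, barcodes were sequenced, and tiles with fewer than 50 reads were discarded. Activation activity is given as the read-weighted mean of bin median fluorescence, averaged across barcodes and linearly mapped to the initial dataset scale.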
As for “MSLFMLRTLPSFVCSSFCAMLHFCCSYSLLFYYWALSLPRWLPIPSGFIPIAF”, the “transcriptional activation domain activity” value is 60200.
With “LLPKSFPYSFFILFFFFLNFLLSSCFFLLFFPSPIRLSPSFTLVVIFHYFLRF” the figure was 51500.
“AAPVAEAAPATEAAPASEPSTEAEVPKEEKTEDKKEEKAPKSPKIGRRLSSRV”: the “transcriptional activation domain activity” value was determined as 17000.
To “NLVRCYYYYGYFGLQSCMVHVFLWFMWWIFLLSSRPLQSTPLSIIWRIILYQA” belongs 29700.
To “AVWGTGYGKYFVLVLCLFAGINITSCWVLIKYLGGLTWCTLFFKNRLLWINFV” belongs 60400; to “EDSEEKPRKKTPRKAAASKPKSKGKKKADSDSGEESDAEPRAKKSATKGKGKK”, 25500; to “EVLITKKPAKQTRGKKAPTAAVNKAEIEEGQDDVNFANVGRGRKRAVAKKVVE”, 25700.
As for “SDSQKSGKIWGLCCTDSFGCLDLIIGLDLSDVLLVIQWRSTCDMCTLWQRLGH”, the “transcriptional activation domain activity” value came out at 53500.
Consider “FYGYFNVLKIYLIKYRSSEVFFFFFDFLMYTENEWFITNLFFLLSFILHLGFF”, for which the “transcriptional activation domain activity” value is 60200.
To “YGARPAAAAEEEEAAEPAEEEAAGEATEAEAGEEEAEATGEEETAEGEGAEGA” belongs 25500; to “GEGRAGGGRGGRKDSRDDRRGNRNSSNERDRSRNRRNSNGNNRSKKNDSDRGR”, 24400; to “MLGKGRIMEYLLTFVWGFGVHILIFYLSCTGVIMGFLLIYTYSTFCFCFHHYV”, 67600.
With “YRLLLSLVVRLYFFLRFSLSHTLRTVVIVLAPLTYFLSGITYIFFTAPYRVLF” the figure was 61800; with “LSSFFLGLLHIGFSLVGYLSLLRISPNVFSVLPRDHTWFNISRFLVLCTILPL”, 59300; with “KEEEQKGEKEEDESEKETEKEEKKEEKKEKRKLMRRKPKAEELESEASEDERE”, 21700.
With “DPIRYLSTMDLGYCVGDKIIGSVLCYKQPIVLLILMYFTDQILFFLDTYLWYI” the figure was 40600; with “NADGMDGEKFYKSIDSAYGFANSSLVHLLLHDQKLLMRLRYLRRLFFGAESDW”, 48800.
For “MLVLLLLLLLLLLLLFLLLPLLLLLPLLLCLYMPCIVRCSNHEVHILLISGTG”, the “transcriptional activation domain activity” value came to 72900.
With “WKKTIQNKIKDSLTLSSKEKELLHLIEHGAEQTTENSNLFYDIFEEIIDSLPS”, the “transcriptional activation domain activity” value was 112000.
With “NDLFAWPWGNPIDLDVAIALQETSIGCYNKRTTVFYANSCNTLLSLLVNKFLL” the figure was 33300; with “YSYVDSNMDSISSVVSEDLLDERGHEKIEDEDEDNDLDEDDIYDISLLKNRRK”, 26500.
In the case of “ATGLAWGVWGKKGAPRFRGSCAERFDTLSSTEWKGSRLVRLVARFDNTVRSVP”, the “transcriptional activation domain activity” value was determined as 45600.
To “MSDDSGASPTQRSVRKPHRKSRNGCLDCRRRRVKCGEEHPSCRVCVRRNVRCE” belongs 49800.
With “IFLHIFLLVLLRLLFLLLSLFYFLLLPHFFYNQPSLLLRLFLNFFQLSLSILL” the figure was 34100.
With “MAPVTQTEWPRQRALHSKSRNGCTTCKQRRVKCDEGKPVWPSAARTAGADRSS” the figure was 50600; with “RLFGRGQWTLGRVIFFVFFYFNVAPLMLGVSMVCWFMVFWIPMGRVTLILFYH”, 85300.
With “ILCLSFSIKVLLCFLLIFFPLNVEPPPPDFFFHFLCLWFFFVISFLRFHLLYF”, the “transcriptional activation domain activity” value was found to be 59900.
With “ISVLLVPYAWAILLAFLLLPVFLCVICMDWTYIPFYLPFFPMIGVFSIVIPLF” the figure was 21100; with “PSNSLEDSIQQTVKARRKLSARPVLRVRIPNNNFSSNSAIPSEPSSASSTSAN”, 19300; with “EEEAEPKPAASAPAVAPAADEEGDDQGGDDAAKKKKKKKKGKKDEDAEPAPAA”, 35300.
With “MYNMLVCLAIEFLWQHLYFFLFLYLTLCCDTFQLILYTPLSMFLFFIFILLKK” the figure was 16500.
To “MATLDVFLRVYCFTLSFLLFLFLIIIFILAYSAFAVDFFFLFVYSSTIELCFI” belongs 36200; to “SAPNDSTTAPTNASNIANTASVNKQMYFMNMNMNNNPHALNDPSILETLSPFF”, 71400; to “REDRQRKQQREKERAAREAEGTQRRRRKRRRTNGGAKTEEGEEENDGEEEEDG”, 52800.
Consider “MVIFRLGSAPFFFLLFLFVLFFRFFFLVCCCLYGWVSVFLLLFFLRFFVSKWG”, for which the “transcriptional activation domain activity” value worked out at 50700.
For “LPHFPIIHPSLLDLDLDSLQRYTNEDGYDDAENAQLFDRLSQGTDKEYDYEHY”, the “transcriptional activation domain activity” value came out at 71500.
For “FMSDVGILRWSKLGMPIQSLYQAIWLTFWCSFPFIRDWSWTAQVFFTLHLLSI”, the “transcriptional activation domain activity” value was 43100.
With “WRKQWLVPLLIRYFNQMVLTLIRWFPLRCLYYTLIKGQAYEGLNKEYDADGIH” the figure was 58300; with “DSATPHGSPRRWTPSSKLSPSVAPSSPSSSTSTSSSPKARSRSHSRTCSTEVQ”, 42200.
With “CFALVVAFGISRNTLLVKAFRCIQYCLSKMSYCLATRLQCCPEYSCYIHQPGD” the figure was 75300; with “RMVYSIRLVFHLYAELLLDRAFFLEWFLSFFAECSLDVLPLAFPIATALWDDL”, 64600; with “TWLLFRQVVDVILINDFLAYCMFAFSCFRVPTDLSIPVHVMRWLVGITLIWFN”, 74100.
With “MHTHAVTRSLFLYFLLNFFFIFFLLLEGFGLLLDFSFFFVLFRLDSLSLLFVF” the figure was 76000; with “SEPTAGNEGKEETSAPKKEESKPAESEKKAEEPKQEQPKKEEKKAEGKPASGS”, 31400.
As to “MFVCTSQSFIRSMGLYGFYLTGLMMTLLVVVVSLTFIQYPTIVILTLFHCLIS”, the “transcriptional activation domain activity” value was 44800.
To “GFVGENSASASVVEVLLRTGGFSTRSLRRRLLETFQLVLEVTHSLAFIKPGGK” belongs 53300.
With “FSFGLLFWFLFLFLFLLLFVFLFWSFGFVLLLVLVLFLCSFLLFMFGFWFSSG” the figure was 47100; with “MGGFFLFFFFFSFVDSFGVVYDMDMRSGGVFFFLPFLSTLFFLLLLGSVLFSC”, 71600.
To “KADEPAVEENGAKEDDSAKKQKTNGETETEKKGKGRGRPKKADGEKKAPAKKR” belongs 21400; to “MLPQLIWGCFIFGLASILLCVTFIPNPSHGYIRMRQSYNSFKLYIFGPSFTYL”, 74800; to “ACIVFWMGSWVYKYQLMFVFVSKVESGGRVWNVVINRLLFCVVLMQCLMILTI”, 73700.
With “MWTFGMIQLYYSPYWGDTRWFWLDYPKTLLSPTFKWYYLIQFAFWLQQLLLAL”, the “transcriptional activation domain activity” value was 73400.
Take “PAPSAAPAPAKEEDDDDEKEEAGGKADAKKKKKKKGKKDDEPAPAAAPAAAGK”: the “transcriptional activation domain activity” value turned out to be 29400.
To “EYVRETTPEKEGGGRRRQKREDVTSGEEDAPDAVEKGKKRKRSAAGGAGAGKK” belongs 48300; to “CMIFGRWACGPALLAVIYAILGVGFAFALVVTRSFASKSYGDRLQFRLRHFFF”, 39600.
